Tested on: MS2 coat protein
Test: apparent KD of MS2 coat protein; designed switch direction (-1 OFF switch, 1 ON switch): -1; higher = weaker reporter binding
Method in brief: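 Three titration conditions were used: no input, 200 uM small-molecule ligand, and an oligonucleotide input. In each, SNAP-549-labelled MS2 coat protein was raised from 0.7 or 1.5 nM, doubling, to 3 µM over designed RNA switches transcribed on Illumina chips by stalled E. coli RNA polymerase. Curve fits of normalised cluster fluorescence gave values whose per-design median over clusters is the apparent KD.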

[1] = Eterna round: R95, input ligand: FMN 200 uM
[2] = Eterna round: R95, input ligand: microRNA oligo, concentration not stated
[3] = Eterna round: R95, input ligand: none
[4] = input ligand: microRNA oligo, concentration not stated

Row | Sequence | apparent KD of MS2 coat protein [1] [nM] | apparent KD of MS2 coat protein [2] [nM] | apparent KD of MS2 coat protein [3] [nM] | apparent KD of MS2 coat protein (input ligand: FMN 200 uM) [nM] | apparent KD of MS2 coat protein (input ligand: none) [nM] | apparent KD of MS2 coat protein [4] [nM]
1 | UGGGUACUCCAUAGAAGAGACAUGAGGAUCACCCAUGUAGGACAAGCUUUUUGCUCGUCUUAAGAUGAGAGAUAGGA [JR_SV3TOV1_Sub013] (puzzle: Sensor v3, turn-off variant 1) | 143 | 114 | 126 |  |  | 
2 | GAGCUAUGAGGAUAUGCAUAUAUGCGGUUUCGUGUGGUACUACAUGAGGAUCACCCAUGUAGAAGGCGUGGCUG [JL-ex2-2.06 mat747 mod] (puzzle: Exclusion 2) |  | 14 |  |  |  | 
3 | AAGGGUAGGCAGGAUAUCCAGGUCGACACCGCGGGAGAAGGGCUUACAUGAGGAUCACCCAUGUAGGGUGCGAG [EX6 A.2] (Eterna round: R97, puzzle: Exclusion 6) |  |  |  | 253 | 133 | 
4 | UUGAUACAUACCUCCAUAAACAUGAGGAUCACCCAUGUAAGUGAGGAUAUAGAUUGUUUAGUAUACUAGAAGGCACUUAGAUAU [JR_ExcNG3_Sub045] (Eterna round: R96, puzzle: Exclusion NG 3) |  |  |  |  |  | 9.11
5 | CCAAGGGAGGAGGAUAUACCCGCCAAUUGGCUUGUAGAAGGCCUCACAUGAGGAUCACCCAUGUGGGACAAAAC [Eternabot (Original) Solution 21] (Eterna round: R97, puzzle: Exclusion 6) |  |  |  | 22.8 | 18.4 | 
6 | UACCUGAGGCAAAGCUUUAGGUAAACAUGAGGAUCACCCAUGUAGGAUAUGGUAGGCAAAGCUUACCAGAAGGACAUGAAAAUU [Mat - Exclusion NG 3 - Mod of JL - D36] (Eterna round: R96, puzzle: Exclusion NG 3) |  |  |  | 333 | 87.8 | 53.3
7 | AGUCGAAAGACCCACAUGGACAUGAGGAUCACCCAUGUACAAGCCUUUUGCUCGUCACUAUCGUCAAAAGACGAUAG [Omei Mir Offv1 A2] (Eterna round: R97, puzzle: Sensor, turn-off variant 1) |  |  |  | 30.8 | 41.8 | 
8 | GAAGAGACAGGAUAUACAUGAGGAUCACCCAUGUGAGUAAGGUAGAGGCGGAGUAGAUGUAGAAGGGUCAAAGA [JR_Exclu3_Sub015] (puzzle: Exclusion 3) | 80.5 | 40.5 | 42.8 |  |  | 
9 | ACAUGAGGAUCACCCAUGUCCGGCUGGUCUGUCUCGGCUGUCGAGGAUAUAGCACGGUAUCCGCGCUAGAAGGCGGGAGCCGGA [Aenatbe mod 86] (Eterna round: R96, puzzle: Exclusion NG 3) |  |  |  | 120 | 38.8 | 47.1
10 | UUGCCGCGAGGAUAUGCAGACGGGUUCAAUACGUGUCUCGGACUUGAGGAUCACCCAAGUAGAAGGCUUUUUAU [LRO-Excl2-13-mod _r4_621 by salish99] (Eterna round: R97, puzzle: Exclusion 2) |  |  |  | 16.2 | 14.8 | 
11 | CUUUGCACGCUGCGGUCCUACAUGAGGAUCACCCAUGUGGUCUGGUGGCGUGGGUCGCCGGACUUGGCUCGUCUUGA [salish99_S_TOV1_R5_040] (Eterna round: R97, puzzle: Sensor, turn-off variant 1) |  |  |  | 18.5 | 18.4 | 
12 | AGAUAACAUGAGGAUCACCCAUGUGAGGAUAUUUACUCAAGAGCUUCGGCUCUCAGGUGAAGAAGGCGCAAUGA [EX1 #55] (Eterna round: R97, puzzle: Exclusion 1) |  |  |  | 44.7 | 45.7 | 
13 | ACAGGCUUUUUGCUCGUCUACAUGAGGAUCACCCAUGUGGGAUUGUUGGUUGUGUUGCUUGUUUGUGCUCGUCUUGU [Low Nucleotide] (Eterna round: R97, puzzle: Sensor, turn-off variant 1) |  |  |  | 16.1 | 17.6 | 
14 | AAAAAACAAGGAUAUACAAAAAAAAAAUGUGUUAAAAAUCCACAUGAGGAUCACCCAUGUAGAAGGUGUAAAAA [JR_Exclusion2_Sub004] (puzzle: Exclusion 2) | 81 | 104 | 172 |  |  | 
15 | UGCAGACGAGGAUAUAGAUUUAAGUACAUGAGGAUCACCCAUGUACAUAUGUAUUUAGAUUUAGAAGGCGUCUGCA [E5/16-A2] (Eterna round: R97, puzzle: Exclusion 5) |  |  |  | 28.2 | 27.7 | 
16 | AUUUAAUUUAAUAAGAUCACAUGAGGAUCACCCAUGUAUAUAUAGGAUAUCAGCUCGAAUAGAGCUGAGAAGGAUAUAUACUAU [ExNG3/7-B4] (Eterna round: R96, puzzle: Exclusion NG 3) |  |  |  |  |  | 276
17 | UUUUACAUGCUGAGAUCCUACAUGAGGAUCACCCAUGUGGUCCGGUGACUUUUGUCACCGGACUUAGCUCGUCUUGU [salish99_S_TOV1_R5_100] (Eterna round: R97, puzzle: Sensor, turn-off variant 1) |  |  |  | 191 | 288 | 
18 | ACAUGAGGAUCACCCAUGUGACCACAAUGGCUGAUGUAGAAACAGGAUAUUCGUGAAUAUCUAACGAAGAAGGGUUAUGACUGG [Deportation 64 - Jieux - Exclusion NG 3] (Eterna round: R96, puzzle: Exclusion NG 3) |  |  |  | 62.9 | 72.1 | 61.7

Row | Sequence | apparent KD of MS2 coat protein [1] [nM] | apparent KD of MS2 coat protein [2] [nM] | apparent KD of MS2 coat protein [3] [nM] | apparent KD of MS2 coat protein (input ligand: FMN 200 uM) [nM] | apparent KD of MS2 coat protein (input ligand: none) [nM] | apparent KD of MS2 coat protein [4] [nM]
19 | UGUGCGUAUGUGAGGAUAUGCUGGUCCUUGGCUCGGCAGAAGGCACAUGAGGAUCACCCAUGUGGUGUCGUACU [salish99_Bmod_ex4_067] (puzzle: Brourd's mod of Exclusion 4) |  | 75.6 |  |  |  | 
20 | GGCCGAGAACAGCUCCGCGCUGCCCUCAGCCGCUCAUUUACAUGAGGAUCACCCAUGUUUUUUGCUUGUCUUGUUUC [Antibe] (puzzle: Sensor v3, turn-off variant 2) | 20.3 | 104 | 22.3 |  |  | 
21 | GUGUUACAUGAGGAUCACCCAUGUGAGGAUAUCAUGCUUCGUAGUAAACUACGAAGUGUGAGAAGGCAUAUGAC [Omei Ex1 E4] (Eterna round: R97, puzzle: Exclusion 1) |  |  |  | 50.7 | 56.5 | 
22 | UAGCACGGAGGAUAUUGGCUCGCACACAUGAGGAUCACCCAUGUGACUUUAUACUUCCGCUAAGAAGGCCGUGUGG [Eternabot (L1) Solution 93] (Eterna round: R97, puzzle: Exclusion 5) |  |  |  | 13.2 | 14.3 | 
23 | UAACUUCUUGUAAGGAUAUCGGUCCCAAGGGACAACGAGAAGGUACAUGAGGAUCACCCAUGUGAAAUAAGAAU [Zala] (puzzle: Brourd's mod of Exclusion 4) | 66.6 | 22.7 | 19.8 |  |  | 
24 | CAGUACUACAAGCUUUGGGACAUGAGGAUCACCCAUGUUCGUCUUAUUGAUCUAGGUACGCUGACGUACCUAGAUCU [JL-sv1-2.11 Brourd mod] (puzzle: Sensor v3, turn-off variant 1) | 16.7 | 33.1 | 15.3 |  |  | 
25 | GUAGGGUCAGGAUAUACGGGCGGGAGGAUGUAGUGGAGUUGGUAGAAGGGACAUGAGGAUCACCCAUGUGAGAA [JR_Exclu4_Sub053] (puzzle: Exclusion 4) |  | 27.3 |  |  |  | 
26 | CCUCAGUAAGGAUAUCAGCUUAGUAGGUUGGUAAUGAGAGCUGAGAAGGUACAUGAGGAUCACCCAUGUUAGUU [JL Zatite mod 10] (puzzle: Exclusion 4) |  | 28.8 |  |  |  | 
27 | AGAUCUGCAGGAUAUGGUUUUCGUGACAUGAGGAUCACCCAUGUCUUAUGUCCGCAUGUUUCAGAAGGGCAGGACG [Eternabot (L1) Solution 71] (Eterna round: R97, puzzle: Exclusion 5) |  |  |  | 74.3 | 27.8 | 
28 | GCCAGAGCAGGAUAUCUAAUAUAUCACAUGAGGAUCACCCAUGUCCAGCGAAAGCUGGAGGGAGAAGGGCUCUGGC [Fiskers Ex 5 - 19] (puzzle: Exclusion 5) | 53.6 | 98.4 | 106 |  |  | 
29 | GAUUUAGAGCAGGAUAUCAUAGAAAUGUAUGAAUGAGAAGGGCUCACAUGAGGAUCACCCAUGUGGUCCUAGAU [JL Dibiri mod 20] (Eterna round: R96, puzzle: Exclusion 6) |  |  |  |  |  | 21.6
30 | CAGUACUGAGGAUAUACAUGAGGAUCACCCAUGUGUUCCAGCUAGGAAACUAGCAAAUGUAGAAGGCAGUACUG [salish99_ex3_r3_089 (STABLE!)] (puzzle: Exclusion 3) | 94.1 | 217 | 234 |  |  | 
31 | UUUUAACAUGAGGAUCACCCAUGUGAGGAUAUCGAAAUUUAUAUUAAUAUUUUUAUUACGAGAAGGCACAUUUU [JMF 74] (puzzle: Exclusion 1) |  | 70.5 |  |  |  | 
32 | AGCUGUGGCCGAGGAUAUCACUACCGAUGGAAAACCAUCGGAACUCCACAUGAGGAUCACCCAUGUGAGAAGGCGGUCUCAGCA [Eli eng2 - 029] (Eterna round: R96, puzzle: Exclusion NG 2) |  |  |  | 24 | 15.7 | 11.2
33 | CUGAGGUAGCGGUCCUAUGACAUGAGGAUCACCCAUGUACCUUGCUUCGAGCUUUUUGCUCGUCUUAUGAUUCUCGG [JL Atriat mod 5] (puzzle: Sensor v3, turn-off variant 1) | 486 | 456 | 576 |  |  | 
34 | UCUUAUUGCAAGGAUAUGCAAAUUAUUUUUUAAGCAGAAGGUGCAACAUGAGGAUCACCCAUGUUUCCGGGAAA [JR_E6_Sub039] (puzzle: Exclusion 6) |  | 23.9 |  |  |  | 
35 | UGAUCAAAUGUCAGGAUAUGCUAUUAGAAAUAAUAGCAGAAGGGACAUGAGGAUCACCCAUGUCUUGUCGAUUU [Magic-01] (puzzle: Brourd's mod of Exclusion 4) | 93.5 | 19.2 | 20.1 |  |  | 

Reference: the supplement of paper PMC9170038
